Measured values published in US20250250357A1 (NANJING ZAIMING PHARMACEUTICAL, published 2025).

B1: S009-F4-127.10 chimeric antibody (antibody, human IgG1, kappa, V domains shown)
VH: EVQLQQSGPVLVKPGASVKMSCKASGYTFTDYYMNWVKQSHGKSPEWIGVINPYNDVISYNQKFKGKATLTVDKSSSTAYMELNSLTSEDSAVYYCANYGSSYYAMDYWGQGTSVTVSS
VL: DVVMTQTPLSLSVSLGDQASISCRSSQSLVHSNGNTYLQWSLQKPGQSPNLLIYKVSNRFSGVPDRFSGSGSGTDFTLKISRVEAEDLGVYFCSQTTHVPFTFGGGTKLEIRR
notes: Human-murine chimeric antibody, human IgG1/kappa constant regions
B2: S009-F4-94.15 chimeric antibody (antibody, human IgG1, kappa, V domains shown)
VH: QVQLHQPGAELVRPGSSVKLSCKASGYTFTSYWVHWVQQRPRQGLEWIGNIDPSDSEIHYNQKFKDKATLTVDKSSSTAYIHLSRLTSEDSAIYYCVRGGVPWFAYWGQGTLVTVSA
VL: QIVLTQSPAIMSASPGEKVTLTCSASSSVSSTYLYWFQQKPGSSPKVWIYSTSNLASGVPARFSGSGSGTSYSLTISSMEAEDAASYFCHQWISYPYTFGGGTKLEIKR
notes: Human-murine chimeric antibody: murine VH/VL on human IgG1 heavy and kappa light constant regions
B3: S009-F6-76.1 chimeric antibody (antibody, human IgG1, kappa, V domains shown)
VH: QVQLQQSGPELVKPGASVKISCKASGYTFTDYYINWVKQRPGQGLEWIGWIFPGRGSTFYYEKFKGKATLTVDKSSSTAYMLLSSLTSEDSAVYFCARRGDSAGYEDLDYWGQGTSVTVSS
VL: NIVMTQSPKFMSMSVGERVTLSCKASENVVTYVSWYQQKPKQSPKLLIYGASKRYTGVPDRFTGSGSATDFTLTISSVQAEDLGDYHCGQSYSYPYTFGGGTKLEIKR
notes: as for B1
B4: S009-F5-9.16 chimeric antibody (antibody, human IgG1, kappa, V domains shown)
VH: EVQLRQSGPVLVKPGASVKMSCKASGYTFTDYFMNWVKPSHGKSLEWIGVINPSNGVINYNQRFKGKATLTVDKSSSTAYMELNSLTSEDSAVYYCARSYDFAWFAYWGQGTLVTVSA
VL: DVLMTQTPLSLPVSLGDQASISCRSSQNIVHSNGNTYLEWYLQKPGQSPKLLIYTVSNRFSGVPDRFSGSGSGTDFTLKISRVEAEDLGVYYCFQGSHVPYTFGGGTKLEIKR
notes: as for B1
B5: S009-F6-62.5 chimeric antibody (antibody, human IgG1, kappa, V domains shown)
VH: QVQLQQPGTELVKPGASVKLSCRASGYTFTAYWMHWVKQRPGQGLEWIGNINPSNGGTDFNEKFKSKATLTVDKSSSTAYMQLSSLTSEDSAVYYCARGRGYFDVWGTGTTVTVSS
VL: DILLTQSPAILSVSPGERVSFSCRASKNIGTSIHWYQQRTNGSPRLLIKYASESISGIPSRFSGSGSGTDFTLNINSVESEDIADYYCQQSNSWPTLTFGAGTKLELKR
notes: as for B1

Molecular target: T1, human MSLN-R3-3 polypeptide (human)
T1 construct: Part of region R3 of human MSLN; also called hMSLN-R3-3; human MSLN-R3-3 protein
Experiment: ELISA, coated antigen, antibody 0.001 nM
Description: (§1) The plate was sealed with a plastic film and incubated at 4° C. overnight. The next day, the plate was washed twice with PBST, and a blocking buffer [PBS+2% (w/w) BSA] was added for blocking at room temperature for 2 h. The blocking buffer was discarded, and a chimeric antibody or negative control antibody serially diluted from 100 nM was added at 50 μL/well. After incubation at 37° C. for 2 h, the plate was washed 3 times with PBST. […] After incubation at 37° C. for 2 h, the plate was washed 5 times with PBST. A TMB substrate was added at 50 μL/well for incubation at room temperature for 5-10 min, and then a stop solution (1.0 N HCl) was added at 50 μL/well.

Binder | OD450
B1 | 0.05
B2 | 0.05
B3 | 0.04
B4 | 0.04
B5 | 0.04

Molecular target: T1, human MSLN-R3-3 polypeptide
Experiment: ELISA, coated antigen, antibody 100 nM
Description: as §1

Binder | OD450
B1 | 0.14
B2 | 0.09
B3 | 0.07
B4 | 1.99
B5 | 0.09

Molecular target: T2, human MSLN-R3-his protein (human, UniProt Q13421 487-598)
T2 construct: Made in HEK293E cells, purified on nickel column; also called hMSLN-R3-his; human MSLN-R3 protein; not shown: His tag
T2 sequence (Q13421 495-606): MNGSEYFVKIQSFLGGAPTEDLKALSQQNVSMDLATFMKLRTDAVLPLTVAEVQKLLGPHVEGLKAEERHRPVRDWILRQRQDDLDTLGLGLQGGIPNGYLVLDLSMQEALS
Experiment: ELISA, coated antigen, antibody 100 nM

Binder | OD450
B1 | 2.1
B2 | 0.1
B3 | 0.08
B4 | 2.28

Molecular target: T2, human MSLN-R3-his protein
Experiment: ELISA, coated antigen, antibody 0.001 nM
Description: as §1

Binder | OD450
B1 | 0.09
B2 | 0.05
B3 | 0.05
B4 | 0.26

Molecular target: T1, human MSLN-R3-3 polypeptide
Experiment: ELISA, coated antigen, no antibody (blank)

Binder | OD450
B1 | 0.07
B2 | 0.07
B3 | 0.04
B4 | 0.05
B5 | 0.05

Molecular target: T2, human MSLN-R3-his protein
Experiment: ELISA, coated antigen, antibody 0.0001 nM

Binder | OD450
B1 | 0.06
B2 | 0.05
B3 | 0.04
B4 | 0.12

Molecular target: T1, human MSLN-R3-3 polypeptide
Experiment: ELISA, coated antigen, antibody 0.01 nM
Description: as §1

Binder | OD450
B1 | 0.05
B2 | 0.05
B3 | 0.05
B4 | 0.04
B5 | 0.04

Molecular target: T1, human MSLN-R3-3 polypeptide
Experiment: ELISA, coated antigen, antibody 10 nM
Description: as §1

Binder | OD450
B1 | 0.06
B2 | 0.06
B3 | 0.04
B4 | 0.67
B5 | 0.05

Molecular target: T1, human MSLN-R3-3 polypeptide
Experiment: ELISA, coated antigen, antibody 1 nM
Description: as §1

Binder | OD450
B1 | 0.05
B2 | 0.05
B3 | 0.04
B4 | 0.13
B5 | 0.05

Molecular target: T2, human MSLN-R3-his protein
Experiment: ELISA, coated antigen, no antibody (blank)
Description: as §1

Binder | OD450
B1 | 0.07
B2 | 0.07
B3 | 0.05
B4 | 0.05

Molecular target: T1, human MSLN-R3-3 polypeptide
Experiment: ELISA, coated antigen, antibody 0.1 nM
Description: as §1

Binder | OD450
B1 | 0.05
B2 | 0.05
B3 | 0.05
B4 | 0.05
B5 | 0.04

Molecular target: T1, human MSLN-R3-3 polypeptide
Experiment: ELISA, coated antigen, antibody 0.0001 nM
Description: as §1

Binder | OD450
B1 | 0.06
B2 | 0.06
B3 | 0.05
B4 | 0.05
B5 | 0.04

Molecular target: T2, human MSLN-R3-his protein
Experiment: ELISA, coated antigen, antibody 0.1 nM
Description: as §1

Binder | OD450
B1 | 1.31
B2 | 0.17
B3 | 0.04
B4 | 1.82

Molecular target: T2, human MSLN-R3-his protein
Experiment: ELISA, coated antigen, antibody 10 nM
Description: as §1

Binder | OD450
B1 | 1.93
B2 | 0.07
B3 | 0.05
B4 | 2.36

Molecular target: T2, human MSLN-R3-his protein
Experiment: ELISA, coated antigen, antibody 0.01 nM
Description: as §1

Binder | OD450
B1 | 0.41
B2 | 0.07
B3 | 0.04
B4 | 1.11

Molecular target: T2, human MSLN-R3-his protein
Experiment: ELISA, coated antigen, antibody 1 nM
Description: as §1

Binder | OD450
B1 | 1.82
B2 | 0.11
B3 | 0.04
B4 | 2.32
